Source: US20220177587A1, “METHODS AND USES OF VARIANT CD80 FUSION PROTEINS AND RELATED CONSTRUCTS” (Alpine Immune Sciences, Inc., priority 2018, published 2022)
One block for each molecule: values may come before it.

Legend:
huCTLA4 = huCTLA4 (Homo sapiens, UniProt P16410); assay: Flow binding to CHO cells stably expressing CTLA4; design: huCTLA4 and huPD-L1, full-length mammalian surface expression constructs were generated; expressed in transfected cells; host or cells: CHO cells, lentiviral transduction, sorted to >98% purity; conditions: for CTLA4 MFI at 33.3 nM: CHO cells stably expressing CTLA4
huCTLA4, sequence (P16410 36-223): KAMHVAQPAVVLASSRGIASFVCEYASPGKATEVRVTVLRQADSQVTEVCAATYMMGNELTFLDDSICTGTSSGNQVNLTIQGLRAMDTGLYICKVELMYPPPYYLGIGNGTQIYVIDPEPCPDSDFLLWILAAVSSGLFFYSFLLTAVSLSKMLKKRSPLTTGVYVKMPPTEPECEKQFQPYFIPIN
Procedure, shortened: (§1)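 Flow cytometry on transfected CHO cells or CD28+ Jurkat/IL2 reporter cells, blocked 20 min in PBS/1% BSA/0.1% azide. Fusion protein 45 min on ice; PE anti-human Fc 1:150, 30 min on ice; fixed in 2% formaldehyde. Read-out PE MFI, EC50 calculated.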

CD28 [1] = target: T1, CD28 (Homo sapiens, UniProt P10747); assay: Jurkat/IL2 + CHO/OKT3 +/- PD-L1 reporter assay: PD-L1-dependent CD28 costimulation; assay type: cell-based; design: host or cells: Jurkat cells expressing an IL-2-luciferase reporter; conditions: Jurkat/IL2 + CHO/OKT3/PD-L1
Procedure, shortened: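 Jurkat reporter cells (100,000/well) preincubated 15 min at room temperature with test protein, then cocultured 5 h at 37 °C with CHO aAPCs bearing anti-CD3 scFv (OKT3) with or without PD-L1. Luciferase luminescence (RLU) read after lysis-substrate addition.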

CD28 [2] = target: T1, CD28; assay: Flow binding to Jurkat/IL2 reporter cells (CD28); design: host or cells: Jurkat cells expressing an IL-2-luciferase reporter
Procedure, shortened: as §1

huPD-L1 = huPD-L1 (Homo sapiens, UniProt Q9NZQ7); assay: Flow binding to CHO cells stably expressing PD-L1; design: huCTLA4 and huPD-L1, full-length mammalian surface expression constructs were generated; expressed in transfected cells; host or cells: CHO cells, lentiviral transduction, sorted to >98% purity; conditions: Table E10
huPD-L1, sequence (Q9NZQ7 19-290): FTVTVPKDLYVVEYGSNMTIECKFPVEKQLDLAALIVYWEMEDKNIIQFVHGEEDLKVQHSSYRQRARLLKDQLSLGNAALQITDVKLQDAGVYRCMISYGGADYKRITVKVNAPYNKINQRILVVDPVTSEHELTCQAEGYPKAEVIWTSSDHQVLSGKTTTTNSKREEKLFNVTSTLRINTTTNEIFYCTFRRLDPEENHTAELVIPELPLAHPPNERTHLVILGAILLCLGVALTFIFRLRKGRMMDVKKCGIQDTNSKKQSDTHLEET
Procedure, shortened: as §1

[3] = Table E10, 33.3 nM, relative to CD80 WT IgV-Fc
[4] = Table E16, consensus variants, 33.3 nM
[5] = Table E11, Jurkats (CD28), 33.3 nM
[6] = Table E16, consensus variants, Jurkats (CD28), 33.3 nM
[7] = Table E23, CD80 IgV-Fc (inert) at 33.3 nM
[8] = Table E23, CD80 IgV-Fc (inert) at 33.3 nM, Jurkat (CD28)

B1: E35D/V68M/A71G/D90G (protein)
chain: VIHVTKEVKEVATLSCGHNVSVEELAQTRIYWQKDKKMVLTMMSGDMNIWPEYKNRTIFDITNNLSIMILGLRPSDEGTYECVVLKYEKGAFKREHLAEVTLSVKAD
- CTLA4 MFI at 33.3 nM (huCTLA4; Table E20, 33.3 nM): 23290
- Relative Luciferase Units (RLU), CD80 Conc 5.0 nM (CD28 [1]; Table E22, CD80 Conc 5.0 nM): 990 RLU
- CD28 MFI at 33.3 nM (CD28 [2]; Table E20, Jurkats (CD28), 33.3 nM): 2843

B2: M47I/A71G (protein)
chain: VIHVTKEVKEVATLSCGHNVSVEELAQTRIYWQKEKKMVLTMMSGDINIWPEYKNRTIFDITNNLSIVILGLRPSDEGTYECVVLKYEKDAFKREHLAEVTLSVKAD
- CTLA4 MFI at 33.3 nM (huCTLA4; Table E10, 33.3 nM): 27768
- CTLA4 Fold change to WT CD80 (huCTLA4; [3]): 14.5
- Fold Increase over WT CD80-IgV-Fe (CD28 [1]; Table E12, 5.0 nM): 4.4
- Relative Luciferase Units (RLU), CD80 Cone 5.0 nM (CD28 [1]; Table E12, 5.0 nM): 1762 RLU
- PD-L1 MFI at 33.3 nM (huPD-L1; 33.3 nM, CHO cells stably expressing PD-L1): 5097
- PD-L1 Fold change to WT CD80 (huPD-L1; 33.3 nM, relative to CD80 WT IgV-Fc): 72.5
- Ratio of PDL1:CD28 (huPD-L1; binding to PD-L1 compared to binding to CD28): 6
- CD28 MFI at 33.3 nM (CD28 [2]; Table E10, 33.3 nM, Jurkats (CD28)): 823
- CD28 Fold change to WT CD80 (CD28 [2]; [3]): 12.5

B4: A26P/E35D/M47I/V68M/A71G/D90G (protein, UniProt P33681 35-288, looked up, variant A26P E35D M47I V68M A71G D90G)
T-lymphocyte activation …: VIHVTKEVKEVATLSCGHNVSVEELPQTRIYWQKDKKMVLTMMSGDINIWPEYKNRTIFDITNNLSIMILGLRPSDEGTYECVVLKYEKGAFKREHLAEVTLSVKADFPTPSISDFEIPTSNIRRIICSTSGGFPEPHLSWLENGEELNAINTTVSQDPETELYAVSSKLDFNMTTNHSFMCLIKYGHLRVNQTFNWNTTKQEHFPDNLLPSWAITLISVNGIFVICCLTYCFAPRCRERRRNERLRRESVRPV
- CTLA4 MFI at 33.3 nM (huCTLA4; [7]): 19761
- Relative Luciferase Units (RLU), CD80 Conc 5.0 nM (CD28 [1]; Table E24, 5.0 nM): 823 RLU
- CD28 MFI at 33.3 nM (CD28 [2]; [8]): 8189

B6: R29C/E35D/M47L/V68M/A71G/L85M (protein, UniProt P33681 35-288, looked up, variant R29C E35D M47L V68M A71G L85M)
T-lymphocyte activation …: VIHVTKEVKEVATLSCGHNVSVEELAQTCIYWQKDKKMVLTMMSGDLNIWPEYKNRTIFDITNNLSIMILGLRPSDEGTYECVVMKYEKDAFKREHLAEVTLSVKADFPTPSISDFEIPTSNIRRIICSTSGGFPEPHLSWLENGEELNAINTTVSQDPETELYAVSSKLDFNMTTNHSFMCLIKYGHLRVNQTFNWNTTKQEHFPDNLLPSWAITLISVNGIFVICCLTYCFAPRCRERRRNERLRRESVRPV
modifications: Fc fusion
- CTLA4 MFI at 33.3 nM (huCTLA4; Table E11, 33.3 nM): 91
- Relative Luciferase Units (RLU), CD80 Cone 5.0 nM (CD28 [1]; Table E13, 5.0 nM): 155 RLU
- CD28 MFI at 33.3 nM (CD28 [2]; [5]): 16

The remaining lines, values ahead:

- CTLA4 MFI at 33.3 nM (huCTLA4; Table E11, 33.3 nM): 20475
- CTLA4 MFI at 33.3 nM (huCTLA4; [4]): 18022
- Relative Luciferase Units (RLU), CD80 Cone 5.0 nM (CD28 [1]; Table E13, 5.0 nM): 225 RLU
- CD28 MFI at 33.3 nM (CD28 [2]; [5]): 14.5
- CD28 MFI at 33.3 nM (CD28 [2]; [6]): 2602
B3: H18Y/E35D/M47L/V68M/E95V/L97Q (protein, UniProt P33681 35-288, looked up, variant H18Y E35D M47L V68M E95V L97Q)
T-lymphocyte activation …: VIHVTKEVKEVATLSCGYNVSVEELAQTRIYWQKDKKMVLTMMSGDLNIWPEYKNRTIFDITNNLSIMILALRPSDEGTYECVVLKYEKDAFKRVHQAEVTLSVKADFPTPSISDFEIPTSNIRRIICSTSGGFPEPHLSWLENGEELNAINTTVSQDPETELYAVSSKLDFNMTTNHSFMCLIKYGHLRVNQTFNWNTTKQEHFPDNLLPSWAITLISVNGIFVICCLTYCFAPRCRERRRNERLRRESVRPV

- CTLA4 MFI at 33.3 nM (huCTLA4; Table E11, 33.3 nM): 18367
- CTLA4 MFI at 33.3 nM (huCTLA4; [4]): 19306
- Relative Luciferase Units (RLU), CD80 Cone 5.0 nM (CD28 [1]; Table E13, 5.0 nM): 1013 RLU
- Relative Luciferase Units (RLU), CD80 Cone 5.0 nM (CD28 [1]; Table E17, consensus variants, 5.0 nM): 2575 RLU
- CD28 MFI at 33.3 nM (CD28 [2]; [5]): 373
- CD28 MFI at 33.3 nM (CD28 [2]; [6]): 1387
B5: H18Y/E35D/M47V/V68M/L85M (protein, UniProt P33681 35-288, looked up, variant H18Y E35D M47V V68M L85M)
T-lymphocyte activation …: VIHVTKEVKEVATLSCGYNVSVEELAQTRIYWQKDKKMVLTMMSGDVNIWPEYKNRTIFDITNNLSIMILALRPSDEGTYECVVMKYEKDAFKREHLAEVTLSVKADFPTPSISDFEIPTSNIRRIICSTSGGFPEPHLSWLENGEELNAINTTVSQDPETELYAVSSKLDFNMTTNHSFMCLIKYGHLRVNQTFNWNTTKQEHFPDNLLPSWAITLISVNGIFVICCLTYCFAPRCRERRRNERLRRESVRPV

- CTLA4 MFI at 33.3 nM (huCTLA4; [7]): 23932
- Relative Luciferase Units (RLU), CD80 Conc 5.0 nM (CD28 [1]; Table E24, 5.0 nM): 926 RLU
- CD28 MFI at 33.3 nM (CD28 [2]; [8]): 4801
B7: H18F/A26P/E35D/M47I/V68M/A71G/D90G (protein, UniProt P33681 35-288, looked up, variant H18F A26P E35D M47I V68M A71G D90G)
T-lymphocyte activation …: VIHVTKEVKEVATLSCGFNVSVEELPQTRIYWQKDKKMVLTMMSGDINIWPEYKNRTIFDITNNLSIMILGLRPSDEGTYECVVLKYEKGAFKREHLAEVTLSVKADFPTPSISDFEIPTSNIRRIICSTSGGFPEPHLSWLENGEELNAINTTVSQDPETELYAVSSKLDFNMTTNHSFMCLIKYGHLRVNQTFNWNTTKQEHFPDNLLPSWAITLISVNGIFVICCLTYCFAPRCRERRRNERLRRESVRPV
